Measurements as given in PMC2424043, “Organelle-specific isoenzymes of plant V-ATPase as revealed by in vivo-FRET analysis” (BMC Cell Biology, 2008).
Read-outs that look alike come from different tables or passages of the source.

B3: VHA-c3 (V-ATPase proteolipid subunit c, isoform 3) fused to CFP or YFP (natural protein, A. thaliana, UniProt P0DH93 1-164, looked up)
chain: MSTFSGDETAPFFGFLGAAAALVFSCMGAAYGTAKSGVGVASMGVMRPELVMKSIVPVVMAGVLGIYGLIIAVIISTGINPKAKSYYLFDGYAHLSSGLACGLAGLSAGMAIGIVGDAGVRANAQQPKLFVGMILILIFAEALALYGLIVGIILSSRAGQSRAE
notes: VHA-c3, A. thaliana, At4g38920, open reading frame without the stop codon; One molecule for the CFP and the YFP fusion; vectors 35S-CFP-NosT and 35S-YFP-NosT; List of constructs in Additional file 4; also called VHA-c-CFP; VHA-c-YFP; source: A. thaliana mesophyll protoplasts, transiently transfected, in living cells; not shown: CFP or YFP, C-terminal, kept

Key:
Experiment in all cases: FRET or BRET; in vivo FRET by sensitized acceptor emission (confocal laser scanning microscopy) in co-transfected A. thaliana mesophyll protoplasts; CFP fusion as donor, YFP fusion as acceptor; a FRET value of 8-10% is taken as background
[1] = target: VHA-a-YFP (Mesembryanthemum crystallinum V-ATPase subunit a fused to YFP) (Mesembryanthemum crystallinum)
[2] = target: T1, VHA-c"1 (V-ATPase proteolipid subunit c", isoform 1) fused to CFP or YFP (A. thaliana, UniProt Q9SZY7 1-180); details: partners not purified
T1 construct: VHA-c"1, A. thaliana, At4g32530, open reading frame without the stop codon; One molecule for the CFP and the YFP fusion; also called VHA-c"-CFP; VHA-c"-YFP; source: A. thaliana mesophyll protoplasts, transiently transfected, in living cells; not shown: CFP or YFP, C-terminal, kept
T1 sequence (looked up): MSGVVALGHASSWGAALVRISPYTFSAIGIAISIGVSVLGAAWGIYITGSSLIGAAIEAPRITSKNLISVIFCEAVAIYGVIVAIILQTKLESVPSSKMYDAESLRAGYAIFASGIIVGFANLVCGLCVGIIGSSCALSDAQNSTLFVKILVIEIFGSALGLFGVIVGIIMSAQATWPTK

[3] = target: B3; details: partners not purified
[4] = target: VHA-a-YFP (Mesembryanthemum crystallinum V-ATPase subunit a fused to YFP) (Mesembryanthemum crystallinum); remark: listed apart in the source
[5] = target: the molecule itself

For “VHA-A-CFP (V-ATPase catalytic subunit A fused to CFP) (from UniProt O23654 1-623) (natural protein)”, the FRET efficiency [1] was 44.8.

B1: VHA-c_(trunc) (third and fourth helices of VHA-c3) fused to CFP (domain or fragment, A. thaliana, UniProt P0DH93 80-164, looked up)
chain: NPKAKSYYLFDGYAHLSSGLACGLAGLSAGMAIGIVGDAGVRANAQQPKLFVGMILILIFAEALALYGLIVGIILSSRAGQSRAE
notes: VHA-c aa 80-164 (helices 3 and 4 of VHA-c3), A. thaliana; Intermediate construct of the hybrid in vector 35S-CFP-C; also called truncated VHA-c; truncated VHA-c-CFP; source: A. thaliana mesophyll protoplasts, transiently transfected, in living cells; not shown: CFP, C-terminal, kept
Molecule B1 has an FRET efficiency [2] of 46.2%, an FRET efficiency [3] of 40.3% and an FRET efficiency [4] of 40.2%.

B2: VHA-e1 (V-ATPase subunit e, isoform 1) fused to CFP or YFP (natural protein, A. thaliana, UniProt Q9FLN5 1-70, looked up)
chain: MGFLITTLIFVVVGIIASLCVRICCNRGPSTNLLHLTLVITATVCCWMMWAIVYIAQMNPLIVPILSETE
notes: VHA-e1, A. thaliana, At5g55290, open reading frame without the stop codon; One molecule for the CFP and the YFP fusion; also called VHA-e isoform 1; AtVHA-e1; source: A. thaliana mesophyll protoplasts, transiently transfected, in living cells; not shown: CFP or YFP, C-terminal, kept
B2 was tested, and the FRET efficiency [3] was ~20% and the FRET efficiency [4] was 20%.

Molecule B3 has an FRET efficiency [5] of 20.8%.

B4: VHA-c"_(trunc) (third and fourth helices of VHA-c"1) fused to CFP (domain or fragment, A. thaliana, UniProt Q9SZY7 88-180, looked up)
chain: QTKLESVPSSKMYDAESLRAGYAIFASGIIVGFANLVCGLCVGIIGSSCALSDAQNSTLFVKILVIEIFGSALGLFGVIVGIIMSAQATWPTK
notes: VHA-c"1 aa 88-180 (helices 3 and 4), A. thaliana; Intermediate construct of the hybrid in vector 35S-CFP-C; fused to the C-terminus of the fluorescent protein; also called truncated VHA-c"; VHA-c"1_(trunc); source: A. thaliana mesophyll protoplasts, transiently transfected, in living cells; not shown: CFP, N-terminal, kept
Molecule B4 has an FRET efficiency [2] of 14.8%.

B5: VHA-e2 (V-ATPase subunit e, isoform 2) fused to CFP or YFP (natural protein, A. thaliana, UniProt Q9SZ13 1-70, looked up)
chain: MAFVVTSLIFAVVGIIASICTRICFNKGPSTNLLHLTLVITATVCCWMMWAIVYIAQMNPLIVPILSEVE
notes: VHA-e2, A. thaliana, At4g26710, open reading frame without the stop codon; One molecule for the CFP and the YFP fusion; also called VHA-e isoform 2; VHA-e2-CFP; source: A. thaliana mesophyll protoplasts, transiently transfected, in living cells; not shown: CFP or YFP, C-terminal, kept
Work on B5 yielded an FRET efficiency [2] of 20%, an FRET efficiency [3] of ~20% and an FRET efficiency [4] of 20%.
